Test results reported in US12329823B2 (The Scripps Research Institute, priority 2021, dated 2025).
Several values for one entry are separate records, joined by “and”; a condition that tells them apart may be missing. Equal entries are not always repeated. Where two headings read alike, the source gives them in different places. Numbered stars: 1 amine (or outer) side, 2 acyl side, 3 side chain; on linkers, the order of the positions; unused ones are H or OH. Bridge positions count the residues as written; N and C are the ends. Square brackets hold non-standard residues; d marks the D form. Peptide text beside a SMILES is read from it. X2 = O=C(O)CCCCCCCCCCCCCCCCCCC(=O)N[C@@H](CCCCNC(=O)CCOCCOCCNC(=O)CCOCCOCCNC(=O)CCC(=O)N(CCNC(=O)C[*:1])CCNC(=O)C[*:2])C(=O)O; Aib = CC(C)(N)C(=O)O

Experiments:
human GIPR = molecular target: T1, human GIPR (Homo sapiens, UniProt P48546); test: In vitro receptor activation reporter assay (CRE-Luc, HEK293-GIPR-CRE cells; receptor-mediated cAMP synthesis); assay type: cell-based; conditions: unnumbered table
T1 construct: expressed in transfected cells; host or cells: HEK293 (CRE-HEK293, HEK293-GIPR-CRE)
T1 sequence (P48546 22-466): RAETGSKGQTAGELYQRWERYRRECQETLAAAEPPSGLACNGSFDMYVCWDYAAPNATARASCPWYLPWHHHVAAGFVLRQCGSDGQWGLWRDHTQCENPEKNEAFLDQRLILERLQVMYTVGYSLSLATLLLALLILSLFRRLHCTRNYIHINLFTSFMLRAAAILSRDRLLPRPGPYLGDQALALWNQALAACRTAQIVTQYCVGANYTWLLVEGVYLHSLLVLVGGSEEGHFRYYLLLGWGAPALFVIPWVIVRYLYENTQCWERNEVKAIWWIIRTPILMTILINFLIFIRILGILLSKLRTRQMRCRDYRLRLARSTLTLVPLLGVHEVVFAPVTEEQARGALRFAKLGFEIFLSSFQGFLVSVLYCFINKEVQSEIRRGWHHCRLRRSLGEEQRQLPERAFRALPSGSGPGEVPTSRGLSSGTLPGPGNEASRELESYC

[1] = Pharmacokinetics in CD-1 mouse, I.V. or S.C. 1 mg/kg, plasma concentration by LC-MS; conditions: individual animals; for AUC(0-inf): AUCINF_pred; for MRT inf / MRT last: mouse, in vivo; for MRT inf: MRTINF_pred; for MRT last: MRTlast;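 on all read-outs here: peptide levels in plasma quantified by LC-MS across multiple sampling times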
Protocol: The peptide plasma concentration at various time points was determined using LC-MS.

[2] = average of runs, read-out: EC50 GIPR average
[3] = Table 15, I.V. 1 mg/kg, 1 mg/kg
[4] = iv, 1 mg/kg, Table 15, I.V. 1 mg/kg

CC[C@H](C)[C@H](NC(=O)[C@H](CC(C)C)NC(=O)[C@H](Cc1c[nH]c2ccccc12)NC(=O)[C@H](CC(N)=O)NC(=O)[C@@H](NC(=O)[C@H](Cc1ccccc1)NC(=O)[C@@H]1CSCC(=O)NCCN(C(=O)CCC(=O)NCCOCCOCCC(=O)NCCOCCOCCC(=O)NCCCC[C@H](NC(=O)CCCCCCCCCCCCCCCCCCC(=O)O)C(=O)O)CCNC(=O)CSC[C@H](NC(=O)[C@H](Cc2ccc(O)cc2)NC(=O)[C@@H](NC(=O)[C@H](CO)NC(=O)[C@H](Cc2ccc(O)cc2)NC(=O)[C@H](CC(=O)O)NC(=O)[C@H](CO)NC(=O)[C@@H](NC(=O)[C@H](Cc2ccc(O)cc2)NC(=O)[C@@H](NC(=O)CNC(=O)[C@H](CCC(=O)O)NC(=O)C(C)(C)NC(=O)[C@@H](N)Cc2ccc(O)cc2)[C@@H](C)O)[C@@H](C)O)[C@@H](C)CC)C(=O)N[C@@H](CC(=O)O)C(=O)N[C@@H](CCCCN)C(=O)N[C@@H](CCC(N)=O)C(=O)N[C@@H](C)C(=O)N[C@@H](C)C(=O)NC(C)(C)C(=O)N1)C(C)C)C(=O)N[C@@H](C)C(=O)NCC(=O)NCC(=O)N1CCC[C@H]1C(=O)N[C@@H](CO)C(=O)N[C@@H](CO)C(=O)NCC(=O)N[C@@H](C)C(=O)N1CCC[C@H]1C(=O)N1CCC[C@H]1C(=O)N1CCC[C@H]1C(=O)N[C@@H](CO)C(N)=O [6Y, 27I, C(14-21)-C20L5A, YAibEGT-YTSDY-SIYXD-KQAAAib-XFVNW-LIAGG-PSSGA-PPPS-NH2 (where each X is C) (SEQ ID NO: 58)] (H-Y[Aib]EGTYTSDYSIYCDKQAA[Aib]CFVNWLIAGGPSSGAPPPS-NH2; linker 14-21 via X2)
EC50 (human GIPR; [2]): 0.56 nM
EC50 (human GIPR; run 03/26, read-out: EC50 GIPR 03/26): 0.6 nM

CC[C@H](C)[C@H](NC(=O)[C@H](CC(C)C)NC(=O)[C@H](Cc1c[nH]c2ccccc12)NC(=O)[C@@H]1CSCC(=O)NCCN(C(=O)CCC(=O)NCCOCCOCCC(=O)NCCOCCOCCC(=O)NCCCC[C@H](NC(=O)CCCCCCCCCCCCCCCCCCC(=O)O)C(=O)O)CCNC(=O)CSC[C@H](NC(=O)[C@H](CCCCN)NC(=O)[C@H](CC(=O)O)NC(=O)[C@H](CC(C)C)NC(=O)[C@H](Cc2ccc(O)cc2)NC(=O)[C@@H](NC(=O)[C@H](CO)NC(=O)[C@H](Cc2ccc(O)cc2)NC(=O)[C@H](CC(=O)O)NC(=O)[C@H](CO)NC(=O)[C@@H](NC(=O)[C@H](Cc2ccc(O)cc2)NC(=O)[C@@H](NC(=O)CNC(=O)[C@H](CCC(=O)O)NC(=O)C(C)(C)NC(=O)[C@@H](N)Cc2ccc(O)cc2)[C@@H](C)O)[C@@H](C)O)[C@@H](C)CC)C(=O)N[C@@H](C)C(=O)N[C@@H](C)C(=O)NC(C)(C)C(=O)N[C@@H](CCC(=O)O)C(=O)N[C@@H](Cc2ccccc2)C(=O)N[C@@H](C(C)C)C(=O)N1)C(=O)N[C@@H](C)C(=O)NCC(=O)NCC(=O)N1CCC[C@H]1C(=O)N[C@@H](CO)C(=O)N[C@@H](CO)C(=O)NCC(=O)N[C@@H](C)C(=O)N1CCC[C@H]1C(=O)N1CCC[C@H]1C(=O)N1CCC[C@H]1C(=O)N[C@@H](CO)C(N)=O [6Y, 27I, C(17-24)-C20L5A, YAibEGT-YTSDY-SIYLD-KXAAAib-EFVXW-LIAGG-PSSGA-PPPS-NH2 (where each X is C) (SEQ ID NO: 59)] (H-Y[Aib]EGTYTSDYSIYLDKCAA[Aib]EFVCWLIAGGPSSGAPPPS-NH2; linker 17-24 via X2)
EC50 (human GIPR; [2]): 0.26 nM

CC[C@H](C)[C@H](NC(=O)[C@H](CC(C)C)NC(=O)[C@H](Cc1c[nH]c2ccccc12)NC(=O)[C@H](CC(N)=O)NC(=O)[C@@H](NC(=O)[C@H](Cc1ccccc1)NC(=O)[C@@H]1CSCC(=O)NCCN(C(=O)CCC(=O)NCCOCCOCCC(=O)NCCOCCOCCC(=O)NCCCC[C@H](NC(=O)CCCCCCCCCCCCCCCCC(=O)O)C(=O)O)CCNC(=O)CSC[C@H](NC(=O)[C@H](Cc2ccc(O)cc2)NC(=O)[C@@H](NC(=O)[C@H](CO)NC(=O)[C@H](Cc2ccc(O)cc2)NC(=O)[C@H](CC(=O)O)NC(=O)[C@H](CO)NC(=O)[C@@H](NC(=O)[C@H](Cc2ccccc2)NC(=O)[C@@H](NC(=O)CNC(=O)[C@H](CCC(=O)O)NC(=O)C(C)(C)NC(=O)[C@@H](N)Cc2ccc(O)cc2)[C@@H](C)O)[C@@H](C)O)[C@@H](C)CC)C(=O)N[C@@H](CC(=O)O)C(=O)N[C@@H](CCCCN)C(=O)N[C@@H](CCC(N)=O)C(=O)N[C@@H](C)C(=O)N[C@@H](C)C(=O)NC(C)(C)C(=O)N1)C(C)C)C(=O)N[C@@H](C)C(=O)NCC(=O)NCC(=O)N1CCC[C@H]1C(=O)N[C@@H](CO)C(=O)N[C@@H](CO)C(=O)NCC(=O)N[C@@H](C)C(=O)N1CCC[C@H]1C(=O)N1CCC[C@H]1C(=O)N1CCC[C@H]1C(=O)N[C@@H](CO)C(N)=O [mCMZ370, YAibEGT-FTSDY-SIYXD-KQAAAib-XFVNW-LIAGG-PSSGA-PPPS-NH2 (where each X is C) (SEQ ID NO: 52)]
AUC ([1]; CD-1, mouse, plasma, iv, 1 mg/kg, AUC0_24, Table 15, I.V. 1 mg/kg): 121000 ng·h/mL
AUC(0-t) ([1]; CD-1, mouse, plasma, iv, 1 mg/kg, AUC last, Table 15, I.V. 1 mg/kg): 148000 ng·h/mL
AUC(0-inf) ([1]; CD-1, mouse, plasma, iv, 1 mg/kg, Table 15, I.V. 1 mg/kg): 149000 ng·h/mL
C0 ([1]; CD-1, mouse, plasma, iv, 1 mg/kg, C0, Table 15, I.V. 1 mg/kg): 15200 ng/mL
Cmax ([1]; CD-1, mouse, plasma, iv, 1 mg/kg, Cmax, Table 15, I.V. 1 mg/kg): 14600 ng/mL
Tmax ([1]; CD-1, mouse, plasma, iv, 1 mg/kg, Tmax, Table 15, I.V. 1 mg/kg): 0.08 h
Vd ([1]; CD-1, mouse, plasma, iv, 1 mg/kg, Vss_pred, Table 15, I.V. 1 mg/kg): 0.098 L/kg
Vd ([1]; CD-1, mouse, plasma, iv, 1 mg/kg, Vz_pred, Table 15, I.V. 1 mg/kg): 0.085 L/kg
half-life ([1]; CD-1, mouse, plasma, iv, 1 mg/kg, t1/2, Table 15, I.V. 1 mg/kg): 8.82 h
AUC ([1]; CD-1, mouse, plasma, sc, 1 mg/kg, AUC0_24, CD-1 mouse, S.C.): 41900 ng·h/mL
AUC(0-inf) ([1]; CD-1, mouse, plasma, sc, 1 mg/kg, S.C.): 53500 ng·h/mL
AUC ([1]; CD-1, mouse, plasma, sc, 1 mg/kg, AUCall, S.C.): 53300 ng·h/mL
CL/F ([1]; CD-1, mouse, plasma, sc, 1 mg/kg, Cl_Fpred, S.C.): 0.24 mL/min/kg
Cmax ([1]; CD-1, mouse, plasma, sc, 1 mg/kg, Cmax, S.C.): 2460 ng/mL
half-life ([1]; CD-1, mouse, plasma, sc, 1 mg/kg, t1/2, CD-1 mouse, S.C.): 7.5 h
AUC0_24 ([1]; CD-1 mouse, S.C., 1 mg/kg): 44691 ng·h/mL and 63474 ng·h/mL
AUCINF_pred ([1]; CD-1 mouse, S.C., 1 mg/kg): 68240 ng·h/mL and 80676 ng·h/mL
AUC_% Extrap_pred ([1]; CD-1 mouse, S.C., 1 mg/kg): 0.26% and 0.31% and 0.19%
AUCall ([1]; CD-1 mouse, S.C., 1 mg/kg): 68029 ng·h/mL and 80522 ng·h/mL
AUMC_% Extrap_pred ([1]; CD-1 mouse, S.C., 1 mg/kg): 1.32% and 1.23% and 0.99%
Cl_Fpred ([1]; CD-1 mouse, S.C., 1 mg/kg): 0.06 mL/min/kg
Cmax ([1]; CD-1 mouse, S.C., 1 mg/kg): 2221 ng/mL and 3993 ng/mL
MRTINF_pred ([1]; CD-1 mouse, S.C., 1 mg/kg): 20.64 h and 15.82 h
MRTlast ([1]; CD-1 mouse, S.C., 1 mg/kg): 20.45 h and 15.69 h
Tlast ([1]; CD-1 mouse, S.C., 1 mg/kg): 72 h
Tmax ([1]; CD-1 mouse, S.C., 1 mg/kg): 7 h and 24 h and 3 h
V_F_pred ([1]; CD-1 mouse, S.C., 1 mg/kg): 0.2 L/kg and 0.15 L/kg and 0.13 L/kg
t1/2 ([1]; CD-1 mouse, S.C., 1 mg/kg): 7.06 h and 7.05 h
Tlast ([1]; Table 15, I.V. 1 mg/kg): 72 h
AUC0_24 [1, 3]: 107856 ng·h/mL and 85158 ng·h/mL
AUC last [1, 3]: 127615 ng·h/mL and 102411 ng·h/mL
AUCINF_pred [1, 3]: 128099 ng·h/mL and 103033 ng·h/mL
AUC_% Extrap_pred [1, 3]: 0.39% and 0.38% and 0.6%
AUMC_% Extrap_pred [1, 3]: 2.24% and 2.36% and 3.79%
C0 [1, 3]: 8380 ng/mL and 10006 ng/mL
Cmax [1, 3]: 8230 ng/mL and 9829 ng/mL
MRTINF_pred [1, 3]: 13.56 h and 13.74 h
MRTlast [1, 3]: 13.29 h and 13.3 h
Vss_pred [1, 3]: 0.106 L/kg and 0.133 L/kg
Vz_pred [1, 3]: 0.099 L/kg and 0.138 L/kg
t1/2 [1, 3]: 9.87 h
MRT inf [1, 4]: 14.6 h
MRT last [1, 4]: 14.3 h
MRT inf ([1]; sc, 1 mg/kg, CD-1 mouse, S.C.): 16.2 h
MRT last ([1]; sc, 1 mg/kg, CD-1 mouse, S.C.): 16.1 h
